Measured values reported in the RNAGym collection of RNA variant scans (doi:10.1073/pnas.2313332121).
This sample holds only a part of the variants without activity.

B1: TPR 5TU (parent)
chain: GGAUCUUCUCGAUCUAACAAAAAAGACAAAUCUGCCACAAAGCUUGAGAGCAUCUUCGGAUGCAGAGGCGGCAGCCUUCGGUGGCGCGAUAGCGCCAACGUUCUCAACUAUGACACGCAAAACGCGUGCUCCGUUGAAUGGAGUUUAUCAUG

Variants of: B1
Experiment: polymerase ribozyme fitness, log enrichment relative to wild type (log ratio); higher = more active; in vitro selection for triplet polymerase activity
How it was run: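 Fitness compares each genotype's enrichment to that of the wild type on a logarithmic scale, averaging replicates with inverse-variance weights. The logarithm is base 2. Enrichment came from Illumina sequencing of input and output libraries after one triplicate round of in vitro selection, which included frozen incubation at −7 °C, of PCR-built, transcribed mutant libraries of each subunit of a heterodimeric triplet polymerase ribozyme. Only genotypes with ≥10 input reads and ≥1 read per output were kept.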

First: A19G G141U
Second: A19G G141C
The “polymerase ribozyme fitness (log ratio)” value of the first is higher: 1.06 for the first, -0.542 for the second.

First: A17G A41U C54U A73G
Second: A17G A47C U130A
The “polymerase ribozyme fitness (log ratio)” value of the first is higher: -1.46 for the first, -4.1 for the second.

C18U A91G A120G C132U G141C and A17C U33G G71A C85U G88U U111C A142G U146C cannot be ordered by “polymerase ribozyme fitness (log ratio)” value: ≤ -4.2 for the first, ≤ -4.2 for the second.

Going from C18U C57A C95U C96A to A19C A52G, the “polymerase ribozyme fitness (log ratio)” value rises from -1.46 to -0.125.

A17G U33G G50U A52U G86C C105U A106C C125A and C18G A24U G50U U53A A73G G92A cannot be ordered by “polymerase ribozyme fitness (log ratio)” value: ≤ -4.2 for the first, ≤ -4.2 for the second.

A19G A23G A110U and C18U C32G C51U C87G cannot be ordered by “polymerase ribozyme fitness (log ratio)” value: ≤ -4.2 for the first, ≤ -4.2 for the second.

Going from A17C G50U C54U C96G to A17U A40U A52G G59A C99G U135C A138G, the “polymerase ribozyme fitness (log ratio)” value falls from -1.28 to ≤ -4.2.

A17U U44G U56G G128U and C18U C32U A41G G48A G68C C87U G94U A107G C149A A150G cannot be ordered by “polymerase ribozyme fitness (log ratio)” value: ≤ -4.2 for the first, ≤ -4.2 for the second.

Compared with C18G G46U A73U C85U G92U C125A, A19C U82G U109G C116A is higher in “polymerase ribozyme fitness (log ratio)” value: ≤ -4.2 for the first, -0.158 for the second.

Going from A19G C38U C76G C93A C103A G143U to A19G A89C C105G, the “polymerase ribozyme fitness (log ratio)” value rises from ≤ -4.2 to -1.99.

Going from A17G C32U C35G G62C C75A to C18G, the “polymerase ribozyme fitness (log ratio)” value rises from ≤ -4.2 to -0.169.

C18U and C18A are within 0.2 log units of each other in “polymerase ribozyme fitness (log ratio)” value: -0.399 for the first, -0.302 for the second.

Going from A17U A49G G86U to C18G A19U G25U A89U G94A C131U, the “polymerase ribozyme fitness (log ratio)” value falls from -1.95 to -3.92.

A19G U53A A91G C95U U104A A121C G126C U135G and C18A A20U A47G A52C G65A G83U U101C G136U cannot be ordered by “polymerase ribozyme fitness (log ratio)” value: ≤ -4.2 for the first, ≤ -4.2 for the second.

Going from C18U C51A A52G A122C to A19C U33A U55A U77G C123G, the “polymerase ribozyme fitness (log ratio)” value falls from -1.98 to ≤ -4.2.

C18G U44A G83A C85A A98U U102G and A19G U82C C116U C125A G141U cannot be ordered by “polymerase ribozyme fitness (log ratio)” value: ≤ -4.2 for the first, ≤ -4.2 for the second.

Compared with A17G C36U, A19C U56A G65A C87U A97U is higher in “polymerase ribozyme fitness (log ratio)” value: -3.9 for the first, -1.81 for the second.

Compared with A17U C54U, A17C C105U is higher in “polymerase ribozyme fitness (log ratio)” value: -0.241 for the first, 1.03 for the second.

Compared with A17G A21U A49C G59C G74U C85G C116U U134A, A19C A106C is higher in “polymerase ribozyme fitness (log ratio)” value: ≤ -4.2 for the first, 0.458 for the second.

A19G A52U C96U A122G and A19G G81C G92U U134G are within 0.2 log units of each other in “polymerase ribozyme fitness (log ratio)” value: -2.62 for the first, -2.69 for the second.

First: A19C A49C A60G U101G G141A
Second: A17C G25C G62U
The “polymerase ribozyme fitness (log ratio)” value of the first is higher: -2.8 for the first, -3.17 for the second.

A17C C116G A138G U144A and C18G A22G A26U U31G U53A G68U C95U A115G cannot be ordered by “polymerase ribozyme fitness (log ratio)” value: ≤ -4.2 for the first, ≤ -4.2 for the second.

Compared with C18U C95U, C18A A20G A24C C27G U82C G126U is lower in “polymerase ribozyme fitness (log ratio)” value: -0.678 for the first, ≤ -4.2 for the second.

Compared with A17G A21C G46C G58U U135G, A17G U134A is higher in “polymerase ribozyme fitness (log ratio)” value: -4.12 for the first, -2.69 for the second.

A17U A28G G34C A64C C79G U90G and A17C U53A A73U C76A C85G C108A U146A cannot be ordered by “polymerase ribozyme fitness (log ratio)” value: ≤ -4.2 for the first, ≤ -4.2 for the second.

Compared with A17U G94C, A17U C18U G94C A115U is lower in “polymerase ribozyme fitness (log ratio)” value: -1.63 for the first, -3.41 for the second.

Going from A19C G59A G84U A98G A115U to C18U U55A A73G G86A G94C, the “polymerase ribozyme fitness (log ratio)” value falls from -3.52 to ≤ -4.2.

A17U U90A U102A U127A A137G A138C U151A and A19G G25U G50A C93U A120G cannot be ordered by “polymerase ribozyme fitness (log ratio)” value: ≤ -4.2 for the first, ≤ -4.2 for the second.

Compared with C18U A52C U145G, C18G C51U C85A A107U C118U A137U is lower in “polymerase ribozyme fitness (log ratio)” value: -2.09 for the first, ≤ -4.2 for the second.

A19C C95A C96U C125G C149U and A17U A37C U61A C93A C99A C125A U144A cannot be ordered by “polymerase ribozyme fitness (log ratio)” value: ≤ -4.2 for the first, ≤ -4.2 for the second.

C18U A19C A30C A47U U56A G67C G70A C85G C87A C96U A142C and C18U C36U C75A C79U C118A C131U cannot be ordered by “polymerase ribozyme fitness (log ratio)” value: ≤ -4.2 for the first, ≤ -4.2 for the second.

Compared with A17G C75A C87A A91C A115U G140U, C18U C85A is higher in “polymerase ribozyme fitness (log ratio)” value: ≤ -4.2 for the first, -0.837 for the second.

A17G C63U G88C and A19C G58C G88U A98G C103G cannot be ordered by “polymerase ribozyme fitness (log ratio)” value: ≤ -4.2 for the first, ≤ -4.2 for the second.

Going from C18G U55A C85G to C18G A21G G48U U82A G100A G136A, the “polymerase ribozyme fitness (log ratio)” value falls from -2.84 to ≤ -4.2.

First: A17U U90G C103A
Second: C18U A21G C99G A147U
The “polymerase ribozyme fitness (log ratio)” value of the first is lower: ≤ -4.2 for the first, -0.0193 for the second.

Going from C18G C76A C85U to C18U A40U C85U C96U C116U, the “polymerase ribozyme fitness (log ratio)” value rises from -0.589 to 0.0691.

Going from A19C G83U to A19C A20U C54A, the “polymerase ribozyme fitness (log ratio)” value falls from 0.141 to -1.03.

Going from A17C G94A A121U U145A U148C to A17G A22G A24U G46A A47C C123A C129A, the “polymerase ribozyme fitness (log ratio)” value falls from -1.99 to ≤ -4.2.

First: A17G C35U C85G A98C A121U C123A
Second: C18U C54U C57A G83U
The “polymerase ribozyme fitness (log ratio)” value of the first is lower: -1.35 for the first, -1.15 for the second.

C18G C27U A64C C93U and A19C C27G A28C G58C G59C A64C C85U cannot be ordered by “polymerase ribozyme fitness (log ratio)” value: ≤ -4.2 for the first, ≤ -4.2 for the second.

Compared with A17C G62A C85A, C18G G88A G100C C103G is lower in “polymerase ribozyme fitness (log ratio)” value: -1.77 for the first, ≤ -4.2 for the second.

With C18G A29U U44G U55G C57A C93U U104G the “polymerase ribozyme fitness (log ratio)” value was ≤ -4.2.
